# Source: patent US12630632B2, “Bispecific HER2 and CD3 binding molecules” (Memorial Sloan Kettering Cancer Center, priority 2017, dated 2026)
# B1: huOKT3 Fab: monovalent Fab prepared from huOKT3 IgG1 (antibody, V domains shown)
# VH: QVQLVQSGGGVVQPGRSLRLSCKASGYTFTRYTMHWVRQAPGKGLEWIGYINPSRGYTNYNQKFKDRFTISRDNSKNTAFLQMDSLRPEDTGVYFCARYYDDHYCLDYWGQGTPVTVSS
# VL: DIQMTQSPSSLSASVGDRVTITCSASSSVSYMNWYQQTPGKAPKRWIYDTSKLASGVPSRFSGSGSGTDYTFTISSLQPEDIATYYCQQWSSNPFTFGQGTKLQITR
# Test system: naïve T cells
# Assay: T cell proliferation (WST-8)
# Format: cell-based, human
# Conditions: 67 nM antibody, 6 days
# Protocol: For T cell proliferation, naïve T cells were purified from human PBMC using Pan T cell isolation kit (Miltenyi Biotec). 2×10^5 purified T cells were mixed with different antibodies in 96-well cell culture plate to a final volume of 250 μl/well. T cells were cultured and maintained in RPMI-1640 supplemented with 10% FBS in 37° C. for 6 days. T cell proliferation was quantitated using the WST-8 kit as described above.
molecule,measurement,value
B1,T cell proliferation in the absence of tumor targets,negligible effects
